# From US10829756B2, “Discovery of enzymes from the alpha-keto acid decarboxylase family” (priority 2015, dated 2020)
# How the values were obtained:
# Assay in all cases: Steady-state kinetics of 2-ketoacid decarboxylase (ADH/NADH coupled)
# Assay type in all cases: biochemical
# Conditions in all cases: other: pH 7.5, 21° C.
# CCCCCCC(=O)C(=O)O = test system: CCCCCCC(=O)C(=O)O
# Procedure: (§1) For the native KIVD and KIVD_VLV mutant, 2 ml overnight cultures of XL1B cells were transformed with pQE9 containing N-terminal his-tagged KIVD enzymes and grown in Terrific Broth (BP biomedical, Cat#3046-042) with 50 μg/mL of carbenicillin. (Fisher scientific, Cat# BP2648-5) For the GEOs, 2 ml overnight cultures of BLR cells were transformed with pet29b+ plasmid containing N-terminal his-tagged GEOs, and grown in Terrific Broth with 50 μg/mL of kanamycin. (Fisher scientific, Cat# BP906-5) These cultures were diluted 1:1000 in 500 mL of Terrific Broth with 1 mM MgSO4, 1% glucose, and 50ug/mL of corresponding antibiotics, then grown at 37° C. for 24 hours. Cultures were pelleted down at 4700 rpm for 10 mins and resuspended in auto-induction media (LB broth, 1 mM MgSO4, 0.1 mM TPP, 1×NPS, and 1×5052) for induction at 18° C. for 34 hours. At the end of induction, cells were centrifuged (4700 rpm, 4° C., 20 minutes), supernatant was removed, and cells were resuspended in 40 mL lysis buffer (100 mM Hepes pH 7.5, 100 mM NaCl, 10% glycerol, 0.1 mM TPP, 1 mM MgSO4, 10 mM Imidazole, 1 mM TCEP) and 1 mM PMSF) and sonicated for 2 minutes. Lysed cells were centrifuged at 4700 rpm at 4° C. for 60 mins to remove cell debris. Supernatant was loaded on gravity flow column with 700 μl of cobalt slurry (Fisher scientific, CAT# PI-90091) washed with 10 ml of wash buffer (100 mM Hepes pH 7.5, 100 mM NaCl, 10% glycerol, 0.1 mM TPP, 1 mM MgSO4, 10 mM Imidazole, and 1 mM TCEP). Cobalt bead bed was washed with 15 ml of wash buffer 5 times and proteins were eluted with 1000 μl of elution buffer (100 mM Hepes pH 7.5, 100 mM NaCl, 10% glycerol, 0.1 mM TPP, 1 mM MgSO4, 200 mM Imidazole, and 1 mM TCEP). Protein samples were immediately buffer exchanged with spin concentrators (Satorius, CAT# VS0112) into storage buffer (100 mM Hepes pH 7.5, 100 mM NaCl, 10% glycerol, 0.1 mM TPP, 1 mM MgSO4, and 1 mM TCEP) and stored at 4° C. until kinetics characterization. Protein concentrations were determined using a Synergy H1 spectrophotometer (Biotek) by measuring absorbance at 280 nm using their calculated extinction coefficients with ExPASy ProtParam Tool.^33 All other buffers and salts were purchased from Fisher Scientific unless otherwise specified.
# (§2) The kcat and KM values of selective KIVD mutants were measured for the substrates: C3, C5, isoC5, and C8. All substrates were dissolved in MilliQ H2O and pH was adjusted to 7.5 as necessary. Activity was measured at 0.005 mM to 10 mM substrates. The assay was performed in a 96-well half-area plate. Each reaction contains a final concentration of 0.5 mM NADH, 1 mM DTT, 0.1 mM TPP, 1 mM MgSO4, reaction buffer (100 mM Hepes, 100 mM NaCl, 10% glycerol, pH 7.5) and ADH (Sigma Aldrich, A7011, 10 U/ml for C3, C5 and C8 reactions, 500 U/ml for isoC5 reactions). A wide range of ketoacid decarboxylase concentrations, 4.5 nM-15 μM, were used according to the activity of each enzyme toward different substrates in order to perform steady state kinetics measurement over a period of an hour. Absorbance readings were taken every 1-minute at OD340 at 21° C. for 60 minutes using the Synergy H1. Kinetic parameters (kcat and KM) were determined by fitting initial velocity versus substrate concentration data to the Michaelis-Menten equation.
# CCCC(=O)C(=O)O = test system: CCCC(=O)C(=O)O
# Procedure: as §1, §2
# CC(=O)C(=O)O = test system: CC(=O)C(=O)O
# Procedure: as §1, §2
# CC(C)C(=O)C(=O)O = test system: CC(C)C(=O)C(=O)O
# Procedure: as §1, §2
substance,measurement,setting,value
"1OVM (1OVM_P23234), ketoacid decarboxylase, SEQ ID NO: 26 (Enterobacter cloacae)",Km,CCCCCCC(=O)C(=O)O,0.021 ± 0.001 mM
same,kcat,CCCCCCC(=O)C(=O)O,1.7 ± 0.1 s⁻¹
same,kcat/Km,CCCCCCC(=O)C(=O)O,80000 ± 4300 M⁻¹ s⁻¹
same,Km,CCCC(=O)C(=O)O,0.5 ± 0.1 mM
same,kcat,CCCC(=O)C(=O)O,1 ± 0.1 s⁻¹
same,kcat/Km,CCCC(=O)C(=O)O,2100 ± 420 M⁻¹ s⁻¹
same,Km,CC(=O)C(=O)O,7.5 ± 0.1 mM
same,kcat,CC(=O)C(=O)O,0.2 ± 0.01 s⁻¹
same,kcat/Km,CC(=O)C(=O)O,32 ± 0.5 M⁻¹ s⁻¹
same,Km,CC(C)C(=O)C(=O)O,6.1 ± 0.6 mM
same,kcat,CC(C)C(=O)C(=O)O,7.8 ± 0.4 s⁻¹
same,kcat/Km,CC(C)C(=O)C(=O)O,1300 ± 130 M⁻¹ s⁻¹
